Measurements from paper PMC9880023.

Biological target: HA-NRX1βS4(−), expressed on COS-7 cells
Experiment: cell-based competitive binding assay (fluorescence microscopy); COS-7 cells expressing HA-NRX1βS4(−); biotin-AβOs fixed at 100 nM monomer equivalent, SorCS1-Fc varied 0–1,500 nM; 1 h at 4°C

- IC50: 92.8 nM
B1: SorCS1 ectodomain tagged with human immunoglobulin Fc region (SorCS1-Fc) (Fc fusion)
chain: SLSCCPPQHPSSTPRRTLTPRGFPHPGPLGRAPATPPPLFMRPLFAVAPGDRALFLERAGGSRVSVATAARSGRRRRSGTEPEKIEPGEGASRSRRDMLKDGGQQGLGTGARDPGKATRFRMEELRLTSTTFALTGDSAHNQAMVHWSGHNSSVILILTKLYDYNLGSITESSLWRSTDYGTTYEKLNDKVGLKTILSYLYVCPTNKCKIMLLTDPEIESSLLISSDEGATYQKYRLNFYLQSLLFHPKQEDWILAYSQDQKLYSSAEFGRRWQLIQESVVPNRFYWSVMGSSKEPDLVHLEARTVDGHSIYLTCRMQNCTEANRNKPFPGYIDPDSLIVQDDYVFVQLTSGGRPHYYVSYRRSPFAQMKLPKYALPKDMHVISTDENQVFAAVQEWNQNDTYNLYISDTRGVYFTLALENVRSSRGPEGNVMIDLYEVAGIKGMFLANKKIDNQVKTFITYNKGRDWRLLQAPDADLRGDPVHCLLPYCSLHLHLKVSENPYTSGIIASRDTAPSIIVASGNIGSELSDSDISMFVSSDAGNTWRQIFEEEHSILYLDQGGVLVAMKHTSLPIRHLWLSFDEGRSWSKYSFTSIPLFVDGVLGEPGEETLIMTVFGHFSHRSEWQLVKVDYKSIFDRRCAEEDYRPWQLHSQGEACIMGAKRIYKKRKSERKCMQKYAGAMESEPCVCTEADFDCDYGYERHSNGQCLPAFWFNPSSLSKDCSLGQSYLNSAGYRKVVSNNCTDGVREQYTAKPQKCPGKAPRGLRIVTADGKLTAEQGHNVTLMVQLEEGDVQRTLIQVDFGDGIAVSYVNLSSMEDGIKHVYQNVGIFRVTVQVDNSLGSDSAVLYLHVTCPLEHVHLSLPFVTTKNKEVNATAVLWPSQVGTLTYVWWYGNNTEPLITLEGSISFKFTSEGMNTITVQVSAGNAILQDTKTIAVYEEFRSLRLAFSPNLDDYNPDIPEWRRDISRVIKKSLVEATGIPSQHILVAVLPGLPTAAELFVLPYQDGTRENKRSPEDLEQISEVLIHKLNQNLVHFELKPGVQVLVHAAHLTAAPLVDLTPTHS
